According to US20260167699A1 (Chugai, published 2026):
One block for each binder: values may come before it.

Molecular target: T1, FcγRIIIa extracellular domain, C-terminal His tag (human, UniProt P08637 17-208)
T1 construct: extracellular domain; also called 3a
Assay: SPR, binding activity relative to GpH7-A5/GpH7-B3/GpL16-k0 (=100)

T1 sequence (P08637 other isoform, or with tags, fused parts or gaps): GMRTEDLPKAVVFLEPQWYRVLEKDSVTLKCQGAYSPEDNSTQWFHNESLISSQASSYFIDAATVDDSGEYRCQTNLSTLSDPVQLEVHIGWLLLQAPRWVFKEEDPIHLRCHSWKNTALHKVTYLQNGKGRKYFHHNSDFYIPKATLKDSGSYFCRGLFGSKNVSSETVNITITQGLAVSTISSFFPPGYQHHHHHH

B1: GpH7-A5/GpH7-B3 variant S298_19Q/GpL16-k0 (antibody, human IgG1, kappa)
heavy 1: not shown
heavy 2: not shown
light: DIVMTQSPLSLPVTPGEPASISCQASESLVHSNRNTYLHWYLQKPGQSPQLLIYKVSNRFSGVPDRFSGSGSGTDFTLKISRVEAEDVGVYYCSQNTHVPPTFGQGTKVEIERTVAAPSVFIFPPSDEQLKSGTASVVCLLNNFYPREAKVQWKVDNALQSGNSQESVTEQDSKDSTYSLSSTLTLSKADYEKHKVYACEVTHQGLSSPVTKSFNRGEC
notes: He Ab; copies: 1 + 1 + 2
He/Con 3a: 70.6%

B3: GpH7-A5/GpH7-B3 variant Y296_10E/GpL16-k0 (antibody, human IgG1, kappa)
heavy 1: not shown
heavy 2: not shown
light: B1 light
notes: He Ab; copies: 1 + 1 + 2
He/Con 3a: 76.8%

B4: GpH7-A5/GpH7-B3 variant Y296_01G/GpL16-k0 (antibody, human IgG1, kappa)
heavy 1: not shown
heavy 2: not shown
light: B1 light
notes: He Ab; copies: 1 + 1 + 2
He/Con 3a: 51.3%

B5: GpH7-A5/GpH7-B3 variant V266_08L/GpL16-k0 (antibody, human IgG1, kappa)
heavy 1: not shown
heavy 2: not shown
light: B1 light
notes: He Ab; copies: 1 + 1 + 2
He/Con 3a: 117%

B6: GpH7-A5/GpH7-B3 variant S324_12R/GpL16-k0 (antibody, human IgG1, kappa)
heavy 1: not shown
heavy 2: not shown
light: B1 light
notes: He Ab; copies: 1 + 1 + 2
He/Con 3a: 98.1%

B7: GpH7-A5/GpH7-B3 variant Y296_08L/GpL16-k0 (antibody, human IgG1, kappa)
heavy 1: not shown
heavy 2: not shown
light: B1 light
notes: He Ab; copies: 1 + 1 + 2
He/Con 3a: 72.4%

B8: GpH7-A5/GpH7-B3 variant S324_08L/GpL16-k0 (antibody, human IgG1, kappa)
heavy 1: not shown
heavy 2: not shown
light: B1 light
notes: He Ab; copies: 1 + 1 + 2
He/Con 3a: 95.5%

B10: GpH7-A5/GpH7-B3 variant Y296_12R/GpL16-k0 (antibody, human IgG1, kappa)
heavy 1: not shown
heavy 2: not shown
light: B1 light
notes: He Ab; copies: 1 + 1 + 2
He/Con 3a: 66.5%

B11: GpH7-A5/GpH7-B3 variant Y296_07I/GpL16-k0 (antibody, human IgG1, kappa)
heavy 1: not shown
heavy 2: not shown
light: B1 light
notes: He Ab; copies: 1 + 1 + 2
He/Con 3a: 75.8%

B13: GpH7-A5/GpH7-B3 variant S324_03V/GpL16-k0 (antibody, human IgG1, kappa)
heavy 1: not shown
heavy 2: not shown
light: B1 light
notes: He Ab; copies: 1 + 1 + 2
He/Con 3a: 101%

B14: GpH7-A5/GpH7-B3 variant S324_04F/GpL16-k0 (antibody, human IgG1, kappa)
heavy 1: not shown
heavy 2: not shown
light: B1 light
notes: He Ab; copies: 1 + 1 + 2
He/Con 3a: 99.3%

B16: GpH7-A5/GpH7-B3 variant V266_02A/GpL16-k0 (antibody, human IgG1, kappa)
heavy 1: not shown
heavy 2: not shown
light: B1 light
notes: He Ab; copies: 1 + 1 + 2
He/Con 3a: 56.8%

B18: GpH7-A5/GpH7-B3 variant Y296_13S/GpL16-k0 (antibody, human IgG1, kappa)
heavy 1: not shown
heavy 2: not shown
light: B1 light
notes: He Ab; copies: 1 + 1 + 2
He/Con 3a: 58.1%

B19: GpH7-A5/GpH7-B3 variant Y296_14T/GpL16-k0 (antibody, human IgG1, kappa)
heavy 1: not shown
heavy 2: not shown
light: B1 light
notes: He Ab; copies: 1 + 1 + 2
He/Con 3a: 60.7%

B21: GpH7-A5/GpH7-B3 variant S324_16H/GpL16-k0 (antibody, human IgG1, kappa)
heavy 1: not shown
heavy 2: not shown
light: B1 light
notes: He Ab; copies: 1 + 1 + 2
He/Con 3a: 113%

B22: GpH7-A5/GpH7-B3 variant Y296_02A/GpL16-k0 (antibody, human IgG1, kappa)
heavy 1: not shown
heavy 2: not shown
light: B1 light
notes: He Ab; copies: 1 + 1 + 2
He/Con 3a: 66.3%

B23: GpH7-A5/GpH7-B3 variant S324_10E/GpL16-k0 (antibody, human IgG1, kappa)
heavy 1: not shown
heavy 2: not shown
light: B1 light
notes: He Ab; copies: 1 + 1 + 2
He/Con 3a: 108%

B24: GpH7-A5/GpH7-B3 variant V266_07I/GpL16-k0 (antibody, human IgG1, kappa)
heavy 1: not shown
heavy 2: not shown
light: B1 light
notes: He Ab; copies: 1 + 1 + 2
He/Con 3a: 113%

B28: GpH7-A5/GpH7-B3 variant S324_02A/GpL16-k0 (antibody, human IgG1, kappa)
heavy 1: not shown
heavy 2: not shown
light: B1 light
notes: He Ab; copies: 1 + 1 + 2
He/Con 3a: 113%

B32: GpH7-A5/GpH7-B3 variant Y296_11K/GpL16-k0 (antibody, human IgG1, kappa)
heavy 1: not shown
heavy 2: not shown
light: B1 light
notes: He Ab; copies: 1 + 1 + 2
He/Con 3a: 53.3%

B33: GpH7-A5/GpH7-B3 variant S324_18N/GpL16-k0 (antibody, human IgG1, kappa)
heavy 1: not shown
heavy 2: not shown
light: B1 light
notes: He Ab; copies: 1 + 1 + 2
He/Con 3a: 103%

B38: GpH7-A5/GpH7-B3 variant S324_14T/GpL16-k0 (antibody, human IgG1, kappa)
heavy 1: not shown
heavy 2: not shown
light: B1 light
notes: He Ab; copies: 1 + 1 + 2
He/Con 3a: 112%

B39: GpH7-A5/GpH7-B3 variant S324_11K/GpL16-k0 (antibody, human IgG1, kappa)
heavy 1: not shown
heavy 2: not shown
light: B1 light
notes: He Ab; copies: 1 + 1 + 2
He/Con 3a: 90.2%

B40: GpH7-A5/GpH7-B3 variant S324_01G/GpL16-k0 (antibody, human IgG1, kappa)
heavy 1: not shown
heavy 2: not shown
light: B1 light
notes: He Ab; copies: 1 + 1 + 2
He/Con 3a: 114%

B42: GpH7-A5/GpH7-B3 variant S324_15Y/GpL16-k0 (antibody, human IgG1, kappa)
heavy 1: not shown
heavy 2: not shown
light: B1 light
notes: He Ab; copies: 1 + 1 + 2
He/Con 3a: 110%

B43: GpH7-A5/GpH7-B3 variant S324_07I/GpL16-k0 (antibody, human IgG1, kappa)
heavy 1: not shown
heavy 2: not shown
light: B1 light
notes: He Ab; copies: 1 + 1 + 2
He/Con 3a: 101%

B44: GpH7-A5/GpH7-B3 variant V266_06M/GpL16-k0 (antibody, human IgG1, kappa)
heavy 1: not shown
heavy 2: not shown
light: B1 light
notes: He Ab; copies: 1 + 1 + 2
He/Con 3a: 84.9%

B45: GpH7-A5/GpH7-B3 variant Y296_03V/GpL16-k0 (antibody, human IgG1, kappa)
heavy 1: not shown
heavy 2: not shown
light: B1 light
notes: He Ab; copies: 1 + 1 + 2
He/Con 3a: 69.1%

B47: GpH7-A5/GpH7-B3 variant S324_06M/GpL16-k0 (antibody, human IgG1, kappa)
heavy 1: not shown
heavy 2: not shown
light: B1 light
notes: He Ab; copies: 1 + 1 + 2
He/Con 3a: 124%

B48: GpH7-A5/GpH7-B3 variant Y296_04F/GpL16-k0 (antibody, human IgG1, kappa)
heavy 1: not shown
heavy 2: not shown
light: B1 light
notes: He Ab; copies: 1 + 1 + 2
He/Con 3a: 79.5%

B49: GpH7-A5/GpH7-B3 variant Y296_06M/GpL16-k0 (antibody, human IgG1, kappa)
heavy 1: not shown
heavy 2: not shown
light: B1 light
notes: He Ab; copies: 1 + 1 + 2
He/Con 3a: 74.6%

B50: GpH7-A5/GpH7-B3 variant S324_09D/GpL16-k0 (antibody, human IgG1, kappa)
heavy 1: not shown
heavy 2: not shown
light: B1 light
notes: He Ab; copies: 1 + 1 + 2
He/Con 3a: 110%

B52: GpH7-A5/GpH7-B3 variant Y296_09D/GpL16-k0 (antibody, human IgG1, kappa)
heavy 1: not shown
heavy 2: not shown
light: B1 light
notes: He Ab; copies: 1 + 1 + 2
He/Con 3a: 89%

B53: GpH7-A5/GpH7-B3 variant S324_19Q/GpL16-k0 (antibody, human IgG1, kappa)
heavy 1: not shown
heavy 2: not shown
light: B1 light
notes: He Ab; copies: 1 + 1 + 2
He/Con 3a: 96.2%

More lines, now with the values ahead:

He/Con 3a: 67.9%
B2: GpH7-A5/GpH7-B3 variant Y296_18N/GpL16-k0 (antibody, human IgG1, kappa)
heavy 1: not shown
heavy 2: not shown
light: B1 light
notes: He Ab; copies: 1 + 1 + 2

He/Con 3a: 113%
B9: GpH7-A5/GpH7-B3 variant Y300_10E/GpL16-k0 (antibody, human IgG1, kappa)
heavy 1: not shown
heavy 2: not shown
light: B1 light
notes: He Ab; copies: 1 + 1 + 2

He/Con 3a: 83.8%
B12: GpH7-A5/GpH7-B3 variant Y300_03V/GpL16-k0 (antibody, human IgG1, kappa)
heavy 1: not shown
heavy 2: not shown
light: B1 light
notes: He Ab; copies: 1 + 1 + 2

He/Con 3a: 92.8%
B15: GpH7-A5/GpH7-B3 variant Y300_14T/GpL16-k0 (antibody, human IgG1, kappa)
heavy 1: not shown
heavy 2: not shown
light: B1 light
notes: He Ab; copies: 1 + 1 + 2

He/Con 3a: 102%
B17: GpH7-A5/GpH7-B3 variant Y300_16H/GpL16-k0 (antibody, human IgG1, kappa)
heavy 1: not shown
heavy 2: not shown
light: B1 light
notes: He Ab; copies: 1 + 1 + 2

He/Con 3a: 63.7%
B20: GpH7-A5/GpH7-B3 variant Y300_11K/GpL16-k0 (antibody, human IgG1, kappa)
heavy 1: not shown
heavy 2: not shown
light: B1 light
notes: He Ab; copies: 1 + 1 + 2

He/Con 3a: 69.1%
B25: GpH7-A5/GpH7-B3 variant Y296_16H/GpL16-k0 (antibody, human IgG1, kappa)
heavy 1: not shown
heavy 2: not shown
light: B1 light
notes: He Ab; copies: 1 + 1 + 2

He/Con 3a: 103%
B26: GpH7-A5/GpH7-B3 variant Y300_07I/GpL16-k0 (antibody, human IgG1, kappa)
heavy 1: not shown
heavy 2: not shown
light: B1 light
notes: He Ab; copies: 1 + 1 + 2

He/Con 3a: 88.1%
B27: GpH7-A5/GpH7-B3 variant Y300_02A/GpL16-k0 (antibody, human IgG1, kappa)
heavy 1: not shown
heavy 2: not shown
light: B1 light
notes: He Ab; copies: 1 + 1 + 2

He/Con 3a: 106%
B29: GpH7-A5/GpH7-B3 variant Y300_06M/GpL16-k0 (antibody, human IgG1, kappa)
heavy 1: not shown
heavy 2: not shown
light: B1 light
notes: He Ab; copies: 1 + 1 + 2

He/Con 3a: 104%
B30: GpH7-A5/GpH7-B3 variant Y300_09D/GpL16-k0 (antibody, human IgG1, kappa)
heavy 1: not shown
heavy 2: not shown
light: B1 light
notes: He Ab; copies: 1 + 1 + 2

He/Con 3a: 71.4%
B31: GpH7-A5/GpH7-B3 variant Y296_19Q/GpL16-k0 (antibody, human IgG1, kappa)
heavy 1: not shown
heavy 2: not shown
light: B1 light
notes: He Ab; copies: 1 + 1 + 2

He/Con 3a: 127%
B34: GpH7-A5/GpH7-B3 variant Y296_20W/GpL16-k0 (antibody, human IgG1, kappa)
heavy 1: not shown
heavy 2: not shown
light: B1 light
notes: He Ab; copies: 1 + 1 + 2

He/Con 3a: 80.3%
B35: GpH7-A5/GpH7-B3 variant Y300_13S/GpL16-k0 (antibody, human IgG1, kappa)
heavy 1: not shown
heavy 2: not shown
light: B1 light
notes: He Ab; copies: 1 + 1 + 2

He/Con 3a: 100%
B36: GpH7-A5/GpH7-B3 variant Y300_04F/GpL16-k0 (antibody, human IgG1, kappa)
heavy 1: not shown
heavy 2: not shown
light: B1 light
notes: He Ab; copies: 1 + 1 + 2

He/Con 3a: 114%
B37: GpH7-A5/GpH7-B3 variant Y300_08L/GpL16-k0 (antibody, human IgG1, kappa)
heavy 1: not shown
heavy 2: not shown
light: B1 light
notes: He Ab; copies: 1 + 1 + 2

He/Con 3a: 105%
B41: GpH7-A5/GpH7-B3 variant Y300_19Q/GpL16-k0 (antibody, human IgG1, kappa)
heavy 1: not shown
heavy 2: not shown
light: B1 light
notes: He Ab; copies: 1 + 1 + 2

He/Con 3a: 101%
B46: GpH7-A5/GpH7-B3 variant Y300_20W/GpL16-k0 (antibody, human IgG1, kappa)
heavy 1: not shown
heavy 2: not shown
light: B1 light
notes: He Ab; copies: 1 + 1 + 2

He/Con 3a: 88.6%
B51: GpH7-A5/GpH7-B3 variant Y300_01G/GpL16-k0 (antibody, human IgG1, kappa)
heavy 1: not shown
heavy 2: not shown
light: B1 light
notes: He Ab; copies: 1 + 1 + 2

He/Con 3a: 96%
B54: GpH7-A5/GpH7-B3 variant Y300_18N/GpL16-k0 (antibody, human IgG1, kappa)
heavy 1: not shown
heavy 2: not shown
light: B1 light
notes: He Ab; copies: 1 + 1 + 2
